Experimental data as given in patent US20160271157A1, “BETA-CATENIN” (UCL BUSINESS PLC, priority 2013, published 2016).

B1: Wnt9B: Recombinant Wnt peptide purchased from R&D systems (protein, UniProt O14905 23-357, looked up)
Protein Wnt-9b: SYFGLTGREVLTPFPGLGTAAAPAQGGAHLKQCDLLKLSRRQKQLCRREPGLAETLRDAAHLGLLECQFQFRHERWNCSLEGRMGLLKRGFKETAFLYAVSSAALTHTLARACSAGRMERCTCDDSPGLESRQAWQWGVCGDNLKYSTKFLSNFLGSKRGNKDLRARADAHNTHVGIKAVKSGLRTTCKCHGVSGSCAVRTCWKQLSPFRETGQVLKLRYDSAVKVSSATNEALGRLELWAPARQGSLTKGLAPRSGDLVYMEDSPSFCRPSKYSPGTAGRVCSREASCSSLCCGRGYDTQSRLVAFSCHCQVQWCCYVECQQCVQEELVYTCKH
B2: Wnt5A: Recombinant Wnt peptide purchased from R&D systems (protein, UniProt P41221 62-380, looked up)
Protein Wnt-5a: IIGAQPLCSQLAGLSQGQKKLCHLYQDHMQYIGEGAKTGIKECQYQFRHRRWNCSTVDNTSVFGRVMQIGSRETAFTYAVSAAGVVNAMSRACREGELSTCGCSRAARPKDLPRDWLWGGCGDNIDYGYRFAKEFVDARERERIHAKGSYESARILMNLHNNEAGRRTVYNLADVACKCHGVSGSCSLKTCWLQLADFRKVGDALKEKYDSAAAMRLNSRGKLVQVNSRFNSPTTQDLVYIDPSPDYCVRNESTGSLGTQGRLCNKTSEGMDGCELMCCGRGYDQFKTVQTERCHCKFHWCCYVKCKKCTEIVDQFVCK

Experiments:
[1] = test system: PC3 prostate cancer cell line; experiment: Live [Ca2+]i imaging (Fluo4/FuraRed ratio) after addition of Wnt ligand; type: cell-based; conditions: PC3 cells; for intracellular calcium mobilization ([Ca2+]i release) in response to Wnt ligand: 100 ng/ml Wnt ligand peptide, ratio of Fluo4/Fura Red; for dependence of time constants (dwell time) on Wnt ligand concentration / co-operativity: three concentrations of each Wnt ligand, first-order fit; for rise and fall time of [Ca2+]i release: Wnt peptide 100 ng/ml
Method: The imaging protocol was developed in the inventor's laboratory and has been described in detail, elsewhere (Wang at al., (2010) PLoS ONE 5, e10456). Briefly, 100000-200000 PC3, MCF7, 253J or Cos 7 cells were plated on 35 mm FluoroDish (WPI) and grown for 48 h; calcium indicators Fluo-4 (Invitrogen) and FuraRed (Invitrogen) at 1 ng/ml were added to FluoroDish containing only 1 ml of culture medium and incubated for 15-20 min at 37° C. The culture medium was removed and washed (×2) and replaced with 1 ml PBS. Live cell calcium Imaging was performed on an Olympus FluoView FV 1000 confocal microscope (Olympus KeyMed) equipped with a 20× dry objective (numerical aperture=0.75). Calcium indicators were excited with an argon laser line (488 nm) and emissions recorded in the green channel (500-560 nm) for Fluo-4 and red channel (600-700 nm) for FuraRed after addition of vehicle control (PBS) or Wnt X (30-600 ng/ml). Images were acquired every 1.1 or 2.2 seconds for up to 600-800s; image and data acquisition was performed using FluoView 1000 software (Olympus, UK). Fluorescent intensity was measured and data exported as a tab delimited file for further analysis using a spreadsheet. All imaging experiments were performed in duplicate; intracellular calcium at 100 ng/ml was measured in at least 3-12 different passages (passage numbers 25 to 37) of cell line for each Wnt ligand. Wnt 11 was tested in at least 5 different passages at 3 different concentrations. To test if the Wnt activated calcium release was from [Ca^2+]i stores, in some cases PC3 cells, loaded with calcium dyes, were incubated with 1-5 μM of thapsigargin (Sigma, UK), resuspended in dimethyl sulfoxide (DMSO), for 20 min at 37° C., prior to addition of Wnt ligand and live calcium imaging (as described above).
The experiments were performed using 35 mm, glass bottom, FluoroDish containing 1 ml PBS, at 37° C., to which ligands were added at desired concentration. In a static, non-superfusing assay system there is a lag time before the start of a response, in this case an increase in the intensity of the Fluo4 signal due to the release of free calcium. To measure the diffusion constant under these conditions we used Pontamine Sky Blue (Sigma Aldridge), which fluoresces in the red spectrum with 488 nm excitation, using standard practice for adding ligands; the diffusion constant was measured to be 23.3±2.1 μm·s^−1 (means±S.E.M, n=8). The calcium wave, in response to Wnt ligands, travelled across the FluoroDish.
After image acquisition, regions of interest (ROI) were drawn over individual PC3 cells (up to 25) in a single frame and calcium intensity measurements were made using FluoView 1000 software (Olympus, UK). The measurements were exported as a tab delimited file into a spreadsheet for further analysis and Fluo4/Fura Red ratios were calculated. The waveform, a product of the ratio of Fluo4 and FuraRed over the period of measurement was used to measure the kinetics of the activation of [Ca^2+]i release in PC3 cells, in response to different Wnt ligands. The time constants (rise, dwell and fall times) were calculated by first fitting the Fluo4/FuraRed ratio to a single Gaussian function (Origin Lab Corp., MA); a lower (10%) and upper (90%) amplitude thresholding method was then used to calculate the time constants (s). Statistical significance was calculated using Mann Whitney U test.

[2] = test system: β-catenin translocation to the nucleus; experiment: β-catenin immunocytochemistry and nuclear co-localization analysis, PC3; type: cell-based; conditions: for Pearson coefficient of nuclear co-localization of β-catenin / expression of β-catenin (immunofluorescence), visible in the nucleus: PC3 cells; for Pearson coefficient of nuclear co-localization of β-catenin: Wnt 100 ng/ml vs control, p<0.001 Mann Whitney test; for expression of β-catenin (immunofluorescence), visible in the nucleus: Wnt ligand 100 ng/ml vs vehicle
Method: (§1) Immunostaining was performed in two different laboratories, independently with the experimenter blind to the identity of the treatment. Either cells used in FluoroDish, post [Ca^2+]i experiments using dyes (see above) or grown in 8 well chamber glass slides (Lab Tek II, Nunc) were used. For Wnt ligand treatment, the culture medium replaced with PBS (without calcium) at 37° C. The experiments were replicated for Wnt ligand or vehicle control as described for [Ca^2+]i measurements. Briefly, Wnt ligands were added and chamber slides incubated at 37° C. for up to 20 min. Chamber wells were washed 3× with 0.5 ml PBS and cells were fixed with 0.5 ml 4% formalin for 30 min at 4° C. Cells were washed 3× with ice cold PBS and stored in 0.5 ml PBS at 4° C. for immunostaining. In some experiments PC3 cells were treated with thaspsigargin as described above.
For immunostaining cells were washed twice for 5 minutes in TBST (20 mM Tris pH 7.4, 0.9% NaCl, 0.1% Tween 20, Sigma). Cells were then incubated in 20% normal goat serum (NGS)/TBST for 30 min at room temperature, the chambers were drained and cells were incubated with mouse anti-β-catenin (ab22656, Abcam, UK) at 1:500 dilution in NGS/TBST overnight at 4° C. Following two further 5 min washes in TBST sections were incubated in goat anti-mouse peroxidase fab (Abcam, UK) at 1:500 dilution for 30 min at room temperature. Following a further two 5 min washes in TBST cells were incubated with tyramide Cy3 (Perkin Elmer) for 10 min at room temperature. Sections were washed twice for 5 min in TBST before nuclear counterstaining with DAPI. After a final two 5 min washes, the chambers were removed and cover slip placed on slides using Permafluor (Thermo Shandon).
Fluorescence immunocytochemical staining for β-catenin expression in cell lines was imaged using Olympus Fluoview 1000 Confocal Microscope (Olympus KeyMed) mounted on an Olympus IX81 inverted microscope using a 20×0.7 NA or 40×1.0 NA dry objective with a zoom of ×3.4′,6-diamidino-2-phenylindole (DAPI, nuclear counterstain) was excited at 405 nm with an emission of 415-500 nm; Cy3 (β-catenin label) signal was excited at 561 nm with an emission spectrum between 570-670 nm. […] Z-stacks of at least 3 fields per sample were imaged and saved in Olympus FV (OIF or OIB) file format.
(§2) Nuclear co-localization of β-catenin was calculated by importing FV files for untreated, control or treated cells, into colocalization plugin of Fiji software (http://fiji.sc/Fiji) for Cy3 (β-catenin) and DAPI (nuclear) signals. Pearson co-relation of colocalization were tabulated for 25-90 cells (from 2-5 different passages of cells) using ROI analysis. Statistical significance between untreated and treated cells was calculated using Mann Whitney U test.

[3] = test system: β-catenin translocation to the nucleus; experiment: β-catenin immunocytochemistry, MCF7; type: cell-based, human; conditions: MCF7 breast cancer cell line
Method: as §1
(§3) For immunostaining cells were washed twice for 5 minutes in TBST (20 mM Tris pH 7.4, 0.9% NaCl, 0.1% Tween 20, Sigma). Cells were then incubated in 20% normal goat serum (NGS)/TBST for 30 min at room temperature, the chambers were drained and cells were incubated with mouse anti-β-catenin (ab22656, Abcam, UK) at 1:500 dilution in NGS/TBST overnight at 4° C. […]
(§4) Fluorescence immunocytochemical staining for β-catenin expression in cell lines was imaged using Olympus Fluoview 1000 Confocal Microscope (Olympus KeyMed) mounted on an Olympus IX81 inverted microscope using a 20×0.7 NA or 40×1.0 NA dry objective with a zoom of ×3.4′,6-diamidino-2-phenylindole (DAPI, nuclear counterstain) was excited at 405 nm with an emission of 415-500 nm; Cy3 (β-catenin label) signal was excited at 561 nm with an emission spectrum between 570-670 nm. […]
as §2, with “Pearson co-relation of colocalization were tabulated for 25-90 cells (from 2-5 different passages of cells) using ROI analysis.” left out

[4] = test system: β-catenin translocation to the nucleus; experiment: β-catenin immunocytochemistry, 253J; type: cell-based, human; conditions: 253J bladder cancer cell line
Method: as §1, §3, §4
as §2, with “Pearson co-relation of colocalization were tabulated for 25-90 cells (from 2-5 different passages of cells) using ROI analysis.” left out

Molecule	intracellular calcium mobilization ([Ca2+]i release) in response to Wnt ligand [1]	dependence of time constants (dwell time) on Wnt ligand concentration / co-operativity [1]	Pearson coefficient of nuclear co-localization of β-catenin [2]	expression of β-catenin (immunofluorescence), visible in the nucleus [2]	β-catenin translocation into the nucleus after Wnt treatment [3]	β-catenin translocation into the nucleus after Wnt treatment [4]	time for thapsigargin-evoked calcium transient to decline to baseline ([1]; thapsigargin 5 μM final concentration)	translocation of β-catenin into the nucleus after inhibition of Wnt induced [Ca2+]i release ([2]; PC3 cells incubated with thapsigargin)	rise and fall time of [Ca2+]i release [1]	K1/2 (half-maximal concentration), Michaelis-Menten kinetics of dwell time of [Ca2+]i release ([1]; estimated from fit of dwell time vs Wnt concentration)
Wnt10B: Recombinant Wnt peptide purchased from R&D systems	induce intracellular calcium mobilization	negative co-operativity	significant increase	visibly increased	β-catenin translocation into the nucleus	β-catenin translocation into the nucleus	–	–	–	–
C/C=C(/C)C(=O)O[C@H]1C(C)=C2[C@H]([C@@H]1OC(=O)CCCCCCC)[C@@](C)(OC(C)=O)C[C@H](OC(=O)CCC)[C@@]1(O)[C@H]2OC(=O)[C@@]1(C)O [thapsigargin, reference compound]	–	–	–	–	–	–	≤ 120 s	reduced the translocation of β-catenin into the nucleus	–	–
B1	induce intracellular calcium mobilization	negative co-operativity	significant increase	visibly increased	β-catenin translocation into the nucleus	β-catenin translocation into the nucleus	–	–	slowest	–
B2	induce intracellular calcium mobilization	classical Michaelis-Menten kinetics	significant increase	visibly increased	β-catenin translocation into the nucleus	β-catenin translocation into the nucleus	–	–	shortest	67 ng/mL
